Experimental data reported in patent publication US10584350B2, “Structurally modified COI1” (Board of Trustees of Michigan State University, priority 2016, dated 2020).

Each molecule was assayed on COI1-JAZ9 interaction (assay: Y2H assays on plates for protein-protein interaction). Details: 10 μM COR, yeast.
Type: cell-based, Arabidopsis
Description: Yeast EGY48 strain carrying the p8Op:LacZ reporter plasmid was co-transformed with pGilda:COI1 (or COI1 mutants) and pB42AD:JAZ9 (or other JAZs) (Clontech). Colonies were selected on SD minimal plates (BD Biosciences) supplemented with the—uracil (U)/-tryptophan (W)/-histidine (H) amino acid drop out solution (Clontech). Yeast colonies were cultured overnight in liquid SD-UWH medium, harvested, washed twice in sterile water, and the absorbance (OD600) of the cultures was adjusted to 0.2 in liquid SD galactose/raffinose-UWH medium (BD Biosciences).
For Y2H assays on plates, 10-μL culture was spotted onto SD galactose/raffinose-UWH plates with 80 μg/mL X-gal and 10 μM COR (Sigma-Aldrich). Blue color indicated protein-protein interactions after 5-7 days of incubation at 30° C.

| Molecule | COR-dependent COI1-JAZ9 interaction |
| --- | --- |
| Y386: COI1 alanine substitution mutant at Y386 (protein, UniProt O04197 1-592, looked up, variant Y386A) Coronatine-insensitive …: MEDPDIKRCKLSCVATVDDVIEQVMTYITDPKDRDSASLVCRRWFKIDSETREHVTMALCYTATPDRLSRRFPNLRSLKLKGKPRAAMFNLIPENWGGYVTPWVTEISNNLRQLKSVHFRRMIVSDLDLDRLAKARADDLETLKLDKCSGFTTDGLLSIVTHCRKIKTLLMEESSFSEKDGKWLHELAQHNTSLEVLNFYMTEFAKISPKDLETIARNCRSLVSVKVGDFEILELVGFFKAAANLEEFCGGSLNEDIGMPEKYMNLVFPRKLCRLGLSYMGPNEMPILFPFAAQIRKLDLLYALLETEDHCTLIQKCPNLEVLETRNVIGDRGLEVLAQYCKQLKRLRIERGADEQGMEDEEGLVSQRGLIALAQGCQELEYMAVAVSDITNESLESIGTYLKNLCDFRLVLLDREERITDLPLDNGVRSLLIGCKKLRRFAFYLRQGGLTDLGLSYIGQYSPNVRWMLLGYVGESDEGLMEFSRGCPNLQKLEMRGCCFSERAIAAAVTKLPSLRYLWVQGYRASMTGQDLMQMARPYWNIELIPSRRVPEVNQQGEIREMEHPAHILAYYSLAGQRTDCPTTVRVLKEPI | reduced |
| R415: COI1 alanine substitution mutant at R415 (protein, UniProt O04197 1-592, looked up, variant R415A) Coronatine-insensitive …: MEDPDIKRCKLSCVATVDDVIEQVMTYITDPKDRDSASLVCRRWFKIDSETREHVTMALCYTATPDRLSRRFPNLRSLKLKGKPRAAMFNLIPENWGGYVTPWVTEISNNLRQLKSVHFRRMIVSDLDLDRLAKARADDLETLKLDKCSGFTTDGLLSIVTHCRKIKTLLMEESSFSEKDGKWLHELAQHNTSLEVLNFYMTEFAKISPKDLETIARNCRSLVSVKVGDFEILELVGFFKAAANLEEFCGGSLNEDIGMPEKYMNLVFPRKLCRLGLSYMGPNEMPILFPFAAQIRKLDLLYALLETEDHCTLIQKCPNLEVLETRNVIGDRGLEVLAQYCKQLKRLRIERGADEQGMEDEEGLVSQRGLIALAQGCQELEYMAVYVSDITNESLESIGTYLKNLCDFRLVLLDAEERITDLPLDNGVRSLLIGCKKLRRFAFYLRQGGLTDLGLSYIGQYSPNVRWMLLGYVGESDEGLMEFSRGCPNLQKLEMRGCCFSERAIAAAVTKLPSLRYLWVQGYRASMTGQDLMQMARPYWNIELIPSRRVPEVNQQGEIREMEHPAHILAYYSLAGQRTDCPTTVRVLKEPI | reduced |
| L413: COI1 alanine substitution mutant at L413 (protein, UniProt O04197 1-592, looked up, variant L413A) Coronatine-insensitive …: MEDPDIKRCKLSCVATVDDVIEQVMTYITDPKDRDSASLVCRRWFKIDSETREHVTMALCYTATPDRLSRRFPNLRSLKLKGKPRAAMFNLIPENWGGYVTPWVTEISNNLRQLKSVHFRRMIVSDLDLDRLAKARADDLETLKLDKCSGFTTDGLLSIVTHCRKIKTLLMEESSFSEKDGKWLHELAQHNTSLEVLNFYMTEFAKISPKDLETIARNCRSLVSVKVGDFEILELVGFFKAAANLEEFCGGSLNEDIGMPEKYMNLVFPRKLCRLGLSYMGPNEMPILFPFAAQIRKLDLLYALLETEDHCTLIQKCPNLEVLETRNVIGDRGLEVLAQYCKQLKRLRIERGADEQGMEDEEGLVSQRGLIALAQGCQELEYMAVYVSDITNESLESIGTYLKNLCDFRLVLADREERITDLPLDNGVRSLLIGCKKLRRFAFYLRQGGLTDLGLSYIGQYSPNVRWMLLGYVGESDEGLMEFSRGCPNLQKLEMRGCCFSERAIAAAVTKLPSLRYLWVQGYRASMTGQDLMQMARPYWNIELIPSRRVPEVNQQGEIREMEHPAHILAYYSLAGQRTDCPTTVRVLKEPI | reduced |
| V411: COI1 alanine substitution mutant at V411 (protein, UniProt O04197 1-592, looked up, variant V411A) Coronatine-insensitive …: MEDPDIKRCKLSCVATVDDVIEQVMTYITDPKDRDSASLVCRRWFKIDSETREHVTMALCYTATPDRLSRRFPNLRSLKLKGKPRAAMFNLIPENWGGYVTPWVTEISNNLRQLKSVHFRRMIVSDLDLDRLAKARADDLETLKLDKCSGFTTDGLLSIVTHCRKIKTLLMEESSFSEKDGKWLHELAQHNTSLEVLNFYMTEFAKISPKDLETIARNCRSLVSVKVGDFEILELVGFFKAAANLEEFCGGSLNEDIGMPEKYMNLVFPRKLCRLGLSYMGPNEMPILFPFAAQIRKLDLLYALLETEDHCTLIQKCPNLEVLETRNVIGDRGLEVLAQYCKQLKRLRIERGADEQGMEDEEGLVSQRGLIALAQGCQELEYMAVYVSDITNESLESIGTYLKNLCDFRLALLDREERITDLPLDNGVRSLLIGCKKLRRFAFYLRQGGLTDLGLSYIGQYSPNVRWMLLGYVGESDEGLMEFSRGCPNLQKLEMRGCCFSERAIAAAVTKLPSLRYLWVQGYRASMTGQDLMQMARPYWNIELIPSRRVPEVNQQGEIREMEHPAHILAYYSLAGQRTDCPTTVRVLKEPI | reduced |
| L412: COI1 alanine substitution mutant at L412 (protein, UniProt O04197 1-592, looked up, variant L412A) Coronatine-insensitive …: MEDPDIKRCKLSCVATVDDVIEQVMTYITDPKDRDSASLVCRRWFKIDSETREHVTMALCYTATPDRLSRRFPNLRSLKLKGKPRAAMFNLIPENWGGYVTPWVTEISNNLRQLKSVHFRRMIVSDLDLDRLAKARADDLETLKLDKCSGFTTDGLLSIVTHCRKIKTLLMEESSFSEKDGKWLHELAQHNTSLEVLNFYMTEFAKISPKDLETIARNCRSLVSVKVGDFEILELVGFFKAAANLEEFCGGSLNEDIGMPEKYMNLVFPRKLCRLGLSYMGPNEMPILFPFAAQIRKLDLLYALLETEDHCTLIQKCPNLEVLETRNVIGDRGLEVLAQYCKQLKRLRIERGADEQGMEDEEGLVSQRGLIALAQGCQELEYMAVYVSDITNESLESIGTYLKNLCDFRLVALDREERITDLPLDNGVRSLLIGCKKLRRFAFYLRQGGLTDLGLSYIGQYSPNVRWMLLGYVGESDEGLMEFSRGCPNLQKLEMRGCCFSERAIAAAVTKLPSLRYLWVQGYRASMTGQDLMQMARPYWNIELIPSRRVPEVNQQGEIREMEHPAHILAYYSLAGQRTDCPTTVRVLKEPI | reduced |
| L410: COI1 alanine substitution mutant at L410 (protein, UniProt O04197 1-592, looked up, variant L410A) Coronatine-insensitive …: MEDPDIKRCKLSCVATVDDVIEQVMTYITDPKDRDSASLVCRRWFKIDSETREHVTMALCYTATPDRLSRRFPNLRSLKLKGKPRAAMFNLIPENWGGYVTPWVTEISNNLRQLKSVHFRRMIVSDLDLDRLAKARADDLETLKLDKCSGFTTDGLLSIVTHCRKIKTLLMEESSFSEKDGKWLHELAQHNTSLEVLNFYMTEFAKISPKDLETIARNCRSLVSVKVGDFEILELVGFFKAAANLEEFCGGSLNEDIGMPEKYMNLVFPRKLCRLGLSYMGPNEMPILFPFAAQIRKLDLLYALLETEDHCTLIQKCPNLEVLETRNVIGDRGLEVLAQYCKQLKRLRIERGADEQGMEDEEGLVSQRGLIALAQGCQELEYMAVYVSDITNESLESIGTYLKNLCDFRAVLLDREERITDLPLDNGVRSLLIGCKKLRRFAFYLRQGGLTDLGLSYIGQYSPNVRWMLLGYVGESDEGLMEFSRGCPNLQKLEMRGCCFSERAIAAAVTKLPSLRYLWVQGYRASMTGQDLMQMARPYWNIELIPSRRVPEVNQQGEIREMEHPAHILAYYSLAGQRTDCPTTVRVLKEPI | reduced |
| R440: COI1 alanine substitution mutant at R440 (protein, UniProt O04197 1-592, looked up, variant R440A) Coronatine-insensitive …: MEDPDIKRCKLSCVATVDDVIEQVMTYITDPKDRDSASLVCRRWFKIDSETREHVTMALCYTATPDRLSRRFPNLRSLKLKGKPRAAMFNLIPENWGGYVTPWVTEISNNLRQLKSVHFRRMIVSDLDLDRLAKARADDLETLKLDKCSGFTTDGLLSIVTHCRKIKTLLMEESSFSEKDGKWLHELAQHNTSLEVLNFYMTEFAKISPKDLETIARNCRSLVSVKVGDFEILELVGFFKAAANLEEFCGGSLNEDIGMPEKYMNLVFPRKLCRLGLSYMGPNEMPILFPFAAQIRKLDLLYALLETEDHCTLIQKCPNLEVLETRNVIGDRGLEVLAQYCKQLKRLRIERGADEQGMEDEEGLVSQRGLIALAQGCQELEYMAVYVSDITNESLESIGTYLKNLCDFRLVLLDREERITDLPLDNGVRSLLIGCKKLRAFAFYLRQGGLTDLGLSYIGQYSPNVRWMLLGYVGESDEGLMEFSRGCPNLQKLEMRGCCFSERAIAAAVTKLPSLRYLWVQGYRASMTGQDLMQMARPYWNIELIPSRRVPEVNQQGEIREMEHPAHILAYYSLAGQRTDCPTTVRVLKEPI | reduced |
| D407: COI1 alanine substitution mutant at D407 (protein, UniProt O04197 1-592, looked up, variant D407A) Coronatine-insensitive …: MEDPDIKRCKLSCVATVDDVIEQVMTYITDPKDRDSASLVCRRWFKIDSETREHVTMALCYTATPDRLSRRFPNLRSLKLKGKPRAAMFNLIPENWGGYVTPWVTEISNNLRQLKSVHFRRMIVSDLDLDRLAKARADDLETLKLDKCSGFTTDGLLSIVTHCRKIKTLLMEESSFSEKDGKWLHELAQHNTSLEVLNFYMTEFAKISPKDLETIARNCRSLVSVKVGDFEILELVGFFKAAANLEEFCGGSLNEDIGMPEKYMNLVFPRKLCRLGLSYMGPNEMPILFPFAAQIRKLDLLYALLETEDHCTLIQKCPNLEVLETRNVIGDRGLEVLAQYCKQLKRLRIERGADEQGMEDEEGLVSQRGLIALAQGCQELEYMAVYVSDITNESLESIGTYLKNLCAFRLVLLDREERITDLPLDNGVRSLLIGCKKLRRFAFYLRQGGLTDLGLSYIGQYSPNVRWMLLGYVGESDEGLMEFSRGCPNLQKLEMRGCCFSERAIAAAVTKLPSLRYLWVQGYRASMTGQDLMQMARPYWNIELIPSRRVPEVNQQGEIREMEHPAHILAYYSLAGQRTDCPTTVRVLKEPI | reduced |
